Experimental data as given in patent publication US20240092857A1.

Legend:
Presenilin-1 = Presenilin-1 (UniProt P49768); test: STED microscopy of KG1a-DLK1-GFP cells, 1864 condensates over 10 images
TGFBR1 = TGFBR1 (UniProt P36897); test: STED microscopy of KG1a-DLK1-GFP cells, 3691 condensates over 10 images
[1] = system: DLK1 extracellular domain (ECD), soluble, exogenously added

Chain of UniProt P36897 (P36897 34-503 limits assumed): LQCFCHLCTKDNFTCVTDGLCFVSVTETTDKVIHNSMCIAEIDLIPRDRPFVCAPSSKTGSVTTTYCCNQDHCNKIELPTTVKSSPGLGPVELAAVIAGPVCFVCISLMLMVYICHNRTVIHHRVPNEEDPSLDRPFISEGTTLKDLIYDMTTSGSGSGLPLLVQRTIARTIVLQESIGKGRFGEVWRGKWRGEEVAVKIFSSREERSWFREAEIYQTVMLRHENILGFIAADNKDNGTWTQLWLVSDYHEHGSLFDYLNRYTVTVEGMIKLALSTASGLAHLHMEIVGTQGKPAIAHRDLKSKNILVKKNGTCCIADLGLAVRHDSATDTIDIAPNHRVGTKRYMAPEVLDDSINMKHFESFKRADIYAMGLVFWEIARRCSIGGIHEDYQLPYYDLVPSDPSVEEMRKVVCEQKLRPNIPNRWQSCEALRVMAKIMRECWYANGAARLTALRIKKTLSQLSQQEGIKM

Substance	percent of DLK1 in the PM that overlaps with PSEN1 (co-localization) (Presenilin-1) [%]	percent of PSEN1 that overlaps with DLK1 (co-localization) (Presenilin-1) [%]	percent of DLK1 in the PM that overlaps with TGFBR1 (co-localization) (TGFBR1) [%]	percent of TGFBR1 that overlaps with DLK1 (co-localization) (TGFBR1) [%]	Notch receptor cleavage, western blot of Notch1 cleaved at Valine 1744 (FIG. 14B) [1]
full-length DLK1 isoform with a C-terminal fusion to GFP, expressed in KG1a cells (from UniProt P80370 24-383)	80	75	75	75	–
Presenilin-1	–	–	–	–	reduces Notch receptor cleavage
